Drawing on US20120123099A1, this text covers Absorbance A450 nm and cellular cytotoxicity (%) (ADCC activity) by NK 92 effector cells on Calcein-AM-loaded hybridoma Mab35 for one substance.

Experiment [1] has as its target anti-nAChR autoantibody mAb35 (an autoantibody to rat nAChR), purified from supernatant of hybridoma Mab35 (ATCC TIB-175). The experiment in a line: ELISA; mAb35 immobilised at 39.1 ng/mL, α1-Fc added, detected with HRP-labeled anti-human Fc antibody. (In general: In an ELISA, binding on a coated surface is turned into a signal by an enzyme label.)
For experiment [2] the target is unchanged. The experiment in a line: ELISA; mAb35 immobilised at 9.8 ng/mL, α1-Fc added, detected with HRP-labeled anti-human Fc antibody.
Experiment [3] has the same target. The experiment in a line: ELISA; mAb35 immobilised at 156.3 ng/mL, α1-Fc added, detected with HRP-labeled anti-human Fc antibody.
For experiment [4] the target is unchanged. As to the kind of experiment: ELISA; mAb35 immobilised at 2500 ng/mL, α1-Fc added, detected with HRP-labeled anti-human Fc antibody.
Experiment [5] shares this target. The experiment in a line: ELISA; mAb35 immobilised at 625 ng/mL, α1-Fc added, detected with HRP-labeled anti-human Fc antibody.
For experiment [6] the target is unchanged. The experiment in a line: ELISA; mAb35 immobilised at 10000 ng/mL, α1-Fc added, detected with HRP-labeled anti-human Fc antibody.
The target of experiment [7] is anti-nAChR autoantibody presented on the cell surface of hybridoma Mab35 (ATCC TIB-175). As to the kind of experiment: cell-based or functional assay.

On to “fusion protein α1-Fc, consisting of an N-terminal extracellular region of isoform 1 of human nAChRα1 subunit and a human antibody heavy chain Fc region (Fc fusion)”, for which the Absorbance A450 nm in experiment [1] is 0.557 A450 nm; in experiment [2], 0.505 A450 nm; in experiment [3], 0.659 A450 nm; in experiment [4], 1.12 A450 nm; in experiment [5] it was 0.871 A450 nm; in experiment [6] it was 1.23 A450 nm. In experiment [7], the cellular cytotoxicity (%) (ADCC activity) by NK 92 effector cells on Calcein-AM-loaded hybridoma Mab35 was 50%.
